Assay: melting temperature; melt of duplexes
Settings: sodium 0.0675 M; strand 1 µM
Substance “CGACGTGCGGTATGTGCTG+CAGCACATCTTGCACGTCG ((((((((...((((((((+))))))))...))))))))” has a Tm of 50.7 °C. In the case of “CGACGTGCATCATGTGCTG+CAGCACATATTGCACGTCG (((((((((..((((((((+))))))))..)))))))))”, the Tm is reported as 50.3 °C. Substance “CGACGTGCTGGATGTGCTG+CAGCACATTGTGCACGTCG ((((((((...((((((((+))))))))...))))))))” has a Tm of 48.3 °C. For “CGACGTGCGTTATGTGCTG+CAGCACATCCTGCACGTCG ((((((((...((((((((+))))))))...))))))))”, the Tm was 49.2 °C. In the case of “CGACGTGCTTCATGTGCTG+CAGCACATCTTGCACGTCG ((((((((...((((((((+))))))))...))))))))”, the Tm is reported as 48.3 °C. Work on “CGACGTGCTGGATGTGCTG+CAGCACATATTGCACGTCG ((((((((...((((((((+))))))))...))))))))” yielded a Tm of 50.9 °C. Substance “CGACGTGCTGGATGTGCTG+CAGCACATCCAGCACGTCG (((((((((((((((((((+)))))))))))))))))))” has a Tm of 65.5 °C. In the case of “CGACGTGCTGGATGTGCTG+CAGCACATCAAGCACGTCG (((((((((.(((((((((+))))))))).)))))))))”, the Tm is reported as 59 °C. Work on “CGACGTGCCGTATGTGCTG+CAGCACATGTTGCACGTCG ((((((((...((((((((+))))))))...))))))))” yielded a Tm of 48.3 °C. “CGACGTGCCAGATGTGCTG+CAGCACATCTGGCACGTCG (((((((((((((((((((+)))))))))))))))))))” showed a Tm of 66.5 °C. With “CGACGTGCGCAATGTGCTG+CAGCACATGCCGCACGTCG (((((((((..((((((((+))))))))..)))))))))” the Tm was 56.6 °C. Substance “CGACGTGCGACATGTGCTG+CAGCACATTATGCACGTCG ((((((((...((((((((+))))))))...))))))))” has a Tm of 50.1 °C. For “CGACGTGCCACATGTGCTG+CAGCACATGGTGCACGTCG ((((((((..(((((((((+)))))))))..))))))))”, the Tm was 53.2 °C. Work on “CGACGTGCCATATGTGCTG+CAGCACATCCGGCACGTCG (((((((((..((((((((+))))))))..)))))))))” yielded a Tm of 52.8 °C. Substance “CGACGTGCTTGATGTGCTG+CAGCACATGGGGCACGTCG ((((((((...((((((((+))))))))...))))))))” has a Tm of 50.7 °C. For “CGACGTGCGGCATGTGCTG+CAGCACATTATGCACGTCG ((((((((...((((((((+))))))))...))))))))”, the Tm was 49 °C. Substance “CGACGTGCCTTATGTGCTG+CAGCACATCCTGCACGTCG ((((((((...((((((((+))))))))...))))))))” has a Tm of 47.2 °C. Substance “CGACGTGCGGTATGTGCTG+CAGCACATAACGCACGTCG (((((((((.(((((((((+))))))))).)))))))))” has a Tm of 61.4 °C. “CGACGTGCCATATGTGCTG+CAGCACATATGGCACGTCG (((((((((((((((((((+)))))))))))))))))))” gave a Tm of 63 °C. In the case of “CGACGTGCACAATGTGCTG+CAGCACATTCGGCACGTCG ((((((((..(((((((((+)))))))))..))))))))”, the Tm is reported as 49.7 °C. In the case of “CGACGTGCTCTATGTGCTG+CAGCACATGAAGCACGTCG (((((((((..((((((((+))))))))..)))))))))”, the Tm is reported as 53 °C. With “CGACGTGCAGGATGTGCTG+CAGCACATTACGCACGTCG ((((((((...((((((((+))))))))...))))))))” the Tm was 50.7 °C. “CGACGTGCGATATGTGCTG+CAGCACATCGTGCACGTCG ((((((((...((((((((+))))))))...))))))))” showed a Tm of 44.3 °C. Work on “CGACGTGCCTTATGTGCTG+CAGCACATGTGGCACGTCG (((((((((..((((((((+))))))))..)))))))))” yielded a Tm of 54.4 °C. Substance “CGACGTGCTGAATGTGCTG+CAGCACATCTCGCACGTCG ((((((((...((((((((+))))))))...))))))))” has a Tm of 50 °C. “CGACGTGCGAGATGTGCTG+CAGCACATTGGGCACGTCG ((((((((...((((((((+))))))))...))))))))” showed a Tm of 51.9 °C. Substance “CGACGTGCCACATGTGCTG+CAGCACATTAGGCACGTCG (((((((((..((((((((+))))))))..)))))))))” has a Tm of 54.2 °C. “CGACGTGCGTCATGTGCTG+CAGCACATGAAGCACGTCG ((((((((.((((((((((+)))))))))).))))))))” gave a Tm of 59.4 °C. Work on “CGACGTGCCGGATGTGCTG+CAGCACATTACGCACGTCG ((((((((...((((((((+))))))))...))))))))” yielded a Tm of 50.1 °C. In the case of “CGACGTGCTTCATGTGCTG+CAGCACATTGTGCACGTCG ((((((((...((((((((+))))))))...))))))))”, the Tm is reported as 44.4 °C. With “CGACGTGCCAGATGTGCTG+CAGCACATCAGGCACGTCG (((((((((.(((((((((+))))))))).)))))))))” the Tm was 59.8 °C. Work on “CGACGTGCCCCATGTGCTG+CAGCACATTCAGCACGTCG ((((((((...((((((((+))))))))...))))))))” yielded a Tm of 47.7 °C. “CGACGTGCCACATGTGCTG+CAGCACATTGGGCACGTCG (((((((((..((((((((+))))))))..)))))))))” showed a Tm of 55 °C. Substance “CGACGTGCGATATGTGCTG+CAGCACATTCTGCACGTCG ((((((((...((((((((+))))))))...))))))))” has a Tm of 51.5 °C. For “CGACGTGCGTTATGTGCTG+CAGCACATAATGCACGTCG ((((((((.((((((((((+)))))))))).))))))))”, the Tm was 57.4 °C. “CGACGTGCGTGATGTGCTG+CAGCACATGACGCACGTCG ((((((((((.((((((((+)))))))).))))))))))” gave a Tm of 57.8 °C.

Source: the array DNA melting data of Ke et al.
